Results from publication PMC6442461 (2020).

Biological target: T1, cytochrome f soluble domain lacking the transmembrane helix (Nostoc sp. PCC 7119, UniProt Q93SW9)
T1 chain: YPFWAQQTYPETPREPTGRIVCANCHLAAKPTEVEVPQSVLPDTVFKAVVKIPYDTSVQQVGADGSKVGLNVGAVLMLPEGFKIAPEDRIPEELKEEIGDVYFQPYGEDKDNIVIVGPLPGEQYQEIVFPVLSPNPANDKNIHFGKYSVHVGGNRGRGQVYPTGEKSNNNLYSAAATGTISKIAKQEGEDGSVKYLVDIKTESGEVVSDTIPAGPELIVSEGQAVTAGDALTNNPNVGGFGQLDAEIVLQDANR
Test: fluorescence titration

Kd: 70 µM
B1: plastocyanin (protein)
chain: ETYTVKLGSDKGLLVFEPAKLTIKPGDTVEFLNNKVPPHNVVFDAALNPAKSADLAKSLSHKQLLMSPGQSTSTTFPADAPAGEYTFYCEPHRGAGMVGKITVAG
